The values that follow come from article PMC12269843, “The molecular basis of T cell receptor recognition of citrullinated tenascin-C presented by HLA-DR4” (The Journal of Biological Chemistry, 2025).

Assay in all cases: fluorescence polarisation; competition: serial dilution of peptide from 500 μM against 20 nM TAMRA-HA for 100 nM HLA-DRB1 protein with 20 nM HLA-DM; 100 mM trisodium citrate pH 5.4, 50 mM NaCl, 5 mM EDTA; 37 °C, read after 24, 48 and 72 h
Background: Fluorescence polarisation rises when a labelled molecule tumbles more slowly, as on binding a larger partner.

Experiment [1] deals with HLA-DRB1*14:02 protein (human).
The target in experiment [2] is HLA-DRB1*04:05 protein (human).
Experiment [3] concerns the target HLA-DRB1*04:01 protein (HLA-DRA*01:01/HLA-DRB1*04:01) (human).
Experiment [4] deals with HLA-DRB1*04:04 protein (human).
The target in experiment [5] is HLA-DRB1*01:01 protein (human).

Where no end group is shown, it is not given here. [ ]: non-standard residue; d: D form. Cit = NC(=O)NCCC[C@H](N)C(=O)O

As to D[Cit]Y[Cit]LNYSLPTG [TNC1014,1016cit peptide], the IC50 in experiment [1] was 1300 nM; in experiment [3], 1100 nM; in experiment [4] it was over 300000 nM; in experiment [5], 800 nM. In experiment [2], this molecule registered a fold weaker affinity against HLA-DRB1*01:01, *04:01 and *14:02 of over 4 fold.

Usually IC50 stands for the concentration needed to halve the response being measured. A low value points to greater potency in that assay.
